Experimental findings from publication PMC5668897 (Biochemistry and Biophysics Reports, 2015) are described below.

The data set deals with the molecule itself. Description: SEC. In general terms: In gel filtration, larger molecules generally elute earlier.

B1: regulatory subunit of Thermotoga maritima acetohydroxyacid synthase (TmAHAS), TM0549 (natural protein)
chain: MTDQIREHLVSMLVHNKPGVMRKVANLFARRGFNISSITVGESETPGLSRLVIMVKGDDKTIEQIEKQAYKLVEVVKVTPIDPLPENRVEREMALIKVRFDEDKQEIFQLVEIFRGKIIDVSREGAIIEITGARSKVEAFINLLPQKQVEEIARTGIVAMNRWNVKEGEGF
In the case of B1, the “stoichiometry N” value is 2.

Broadly, the stoichiometry N is the number of molecules, sites or subunits per partner or assembly.
